According to patent US7314621B2, “Cytidine deaminase” (Kyoto University, priority 1999, dated 2008):

Columns and labels:
[1] = Cytidine deaminase activity of the AID protein ([3H]deoxycytidine to deoxyuridine, TLC); assay type: biochemical; settings: AID-GST fusion protein 2 to 600 ng, pH 7.5, 2 to 4 hours
Experimental: A cytidine deaminase activity of AID was measured by the same method as in the previous report (J Biol. Chem. 270:14768-14775, 1995).
The purified AID-GST fusion protein prepared in the above (2, 4, 6, 8, 10, 20, 40, 60, 100, 200, 300, 400, and 600 ng) was incubated in the buffer (pH 7.5, the total amount 10 μl) containing 45 mM Tris with 3.3 μCi [^3H] deoxycytidine (24.8 Ci/mmol, DuPont) and 250 μM cytidine for 2 to 4 hours. The reaction was terminated by adding deoxycytidine (2 μl of 10 μg/ml) and deoxyuridine (2 μl of 10 μg/ml). Insoluble substances were removed by centrifugation, and the reaction mixture (4 μl) was subjected to the polyethylene imine-cellulose thin layer chromatography plate (VWR). The plate was developed in isopropyl alcohol/10% HCl (7:2 v/v). The plate was exposed to ultraviolet light (254 nm) for visualization and bands corresponding to deoxycytidine and deoxyuridine were collected, and added to Ultima Gold scintillation solution to be quantified by liquid scintillation photometer (Packard)

AU-rich RNA (5-AU) = experiment: Gel retardation assay, avidity to AU-rich RNA; assay type: binding
Excerpt: Since the AID protein has a functional cytidine deaminase activity as well as a structural similarity to APOBEC-1, to examine RNA editing activity in the AID protein, avidity to AU-rich RNA (5-AU) and apoB RNA (which are RNA substrates for APOBEC-1) was examined.

B1: AID protein: activation-induced cytidine deaminase, novel mouse protein (SEQ ID NO:2), tested as purified GST fusion protein (protein)
chain: MDSLLMKQKKFLYHFKNVRWAKGRHETYLCYVVKRRDSATSCSLDFGHLRNKSGCHVELLFLRYISDWDLDPGRCYRVTWFTSWSPCYDCARHVAEFLRWNPNLSLRIFTARLYFCEDRKAEPEGLRRLHRAGVQIGIMTFKDYFYCWNTFVENRERTFKAWEGLHENSVRLTRQLRRILLPLYEVDDLRDAFRMLGF
modifications: left off: a dimerising Fc or GST
- cytidine deaminase activity [1]: concentration-dependent cytidine deaminase activity
- avidity to AU-rich RNA (5-AU) (AU-rich RNA (5-AU)): did not show avidity
